Consider 6 molecules from patent publication US20240116985A1 (published 2024).

As usually defined, the IC50 is the midpoint of a concentration-inhibition curve. High values mean weaker potency in that assay, low ones greater potency in that assay.

Test [1] concerns the target T1, B-cat-Halo (beta-catenin HaloTag Nano-BRET construct) (UniProt P35222 1-781).
T1 sequence (looked up): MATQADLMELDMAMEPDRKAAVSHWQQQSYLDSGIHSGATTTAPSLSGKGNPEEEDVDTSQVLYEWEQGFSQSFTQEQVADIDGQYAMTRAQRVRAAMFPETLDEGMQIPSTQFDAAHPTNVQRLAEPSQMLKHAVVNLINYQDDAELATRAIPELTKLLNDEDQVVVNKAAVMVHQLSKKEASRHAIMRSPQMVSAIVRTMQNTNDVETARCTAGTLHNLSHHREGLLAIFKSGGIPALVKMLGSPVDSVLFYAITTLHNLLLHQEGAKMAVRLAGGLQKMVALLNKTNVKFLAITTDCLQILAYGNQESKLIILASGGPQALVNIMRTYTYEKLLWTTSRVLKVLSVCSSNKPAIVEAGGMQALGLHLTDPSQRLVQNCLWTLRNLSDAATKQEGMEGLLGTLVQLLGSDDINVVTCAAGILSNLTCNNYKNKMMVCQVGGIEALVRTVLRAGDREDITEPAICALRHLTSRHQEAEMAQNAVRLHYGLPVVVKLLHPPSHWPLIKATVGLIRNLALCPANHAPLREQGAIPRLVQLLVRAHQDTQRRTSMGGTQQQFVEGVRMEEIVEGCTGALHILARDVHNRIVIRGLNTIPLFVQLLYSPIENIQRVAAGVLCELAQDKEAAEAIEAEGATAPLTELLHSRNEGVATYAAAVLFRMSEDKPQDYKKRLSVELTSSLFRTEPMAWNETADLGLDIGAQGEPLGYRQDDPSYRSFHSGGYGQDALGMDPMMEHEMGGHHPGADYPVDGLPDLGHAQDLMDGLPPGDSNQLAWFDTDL
The test is described as follows: cell-based or functional assay.

Test [2] deals with T2, full-length beta-Catenin (Uniprot ID P35222) (Homo sapiens (Human), UniProt P35222 1-781).
T2 construct: The assay protocol says 'full-length'; also called bCat; B-Catenin
T2 sequence: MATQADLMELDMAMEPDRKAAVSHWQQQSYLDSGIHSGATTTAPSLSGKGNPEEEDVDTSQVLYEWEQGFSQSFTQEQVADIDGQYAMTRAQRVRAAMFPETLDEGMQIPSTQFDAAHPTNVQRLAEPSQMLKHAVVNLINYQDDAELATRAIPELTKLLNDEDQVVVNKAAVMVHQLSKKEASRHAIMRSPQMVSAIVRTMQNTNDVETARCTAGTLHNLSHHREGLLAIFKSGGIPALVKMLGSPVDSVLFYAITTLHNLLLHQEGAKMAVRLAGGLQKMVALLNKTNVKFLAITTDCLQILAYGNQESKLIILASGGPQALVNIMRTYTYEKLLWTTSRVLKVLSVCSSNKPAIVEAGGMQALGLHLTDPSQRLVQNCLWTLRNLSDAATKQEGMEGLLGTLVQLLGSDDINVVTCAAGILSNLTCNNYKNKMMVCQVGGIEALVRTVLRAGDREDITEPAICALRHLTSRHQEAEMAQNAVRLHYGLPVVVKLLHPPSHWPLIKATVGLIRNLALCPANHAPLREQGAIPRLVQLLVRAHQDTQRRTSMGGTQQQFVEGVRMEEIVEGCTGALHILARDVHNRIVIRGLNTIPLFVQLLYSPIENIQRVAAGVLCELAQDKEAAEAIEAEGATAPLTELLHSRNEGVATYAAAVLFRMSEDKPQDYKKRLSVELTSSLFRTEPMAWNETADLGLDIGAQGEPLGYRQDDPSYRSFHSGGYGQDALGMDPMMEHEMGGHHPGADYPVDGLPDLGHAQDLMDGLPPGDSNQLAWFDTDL
Put plainly: fluorescence polarization competition; full-length beta-catenin, 5FAM-TCF4(10-53) probe as competitor. As for the experimental part:
The plate was incubated protected from light for 60 minutes at 20° C. prior to read. Reads were performed on a CLARIOstar plate reader (BMG Labtech) in duplicate, and data were fitted to a 1:1 binding model with hill slope using an in-house script. All provided concentrations are final concentrations.
A general note: Polarisation of emitted light reports the rotation of a fluorescent probe.

Starred links: 1 amine or outer side, 2 acyl side, 3 side chain; linkers in the order of their positions; H or OH if unused. Positions of bridges follow the written chain, without caps; N, C: chain ends. Non-standard residues stand in square brackets, D forms with d. Primed or numbered codes have the meaning given here. PyrS2″ = (S)-3-amino-1-((pent-4-en-1-yloxy)carbonyl)pyrrolidine-3-carboxylic acid (stapling residue), C=CCCCOC(=O)N1CC[C@@](N[*:1])(C(=O)[*:2])C1; B5(17) = 2,2-bis(4-pentenyl)glycine = 2-amino-2-(pent-4-en-1-yl)hept-6-enoic acid, stitching residue, C=CCCCC(CCCC=C)(N[*:1])C(=O)[*:2]; B5(4) = 2,2-bis(4-pentenyl)glycine = 2-amino-2-(pent-4-en-1-yl)hept-6-enoic acid (stitching residue), C=CCCCC(CCCC=C)(N[*:1])C(=O)[*:2]; B5(21) = 2-amino-2-(pent-4-en-1-yl)hept-6-enoic acid, bis(4-pentenyl)glycine (stitching residue), C=CCCCC(CCCC=C)(N[*:1])C(=O)[*:2]; SeN = (S)-5-(((allyloxy)carbonyl)(methyl)amino)-2-amino-2-methylpentanoic acid, C=CCOC(=O)N(C)CCC[C@](C)(N[*:1])C(=O)[*:2]; SdN = (S)-4-(((allyloxy)carbonyl)(methyl)amino)-2-amino-2-methylbutanoic acid, C=CCOC(=O)N(C)CC[C@](C)(N[*:1])C(=O)[*:2]; (EtSSEt)AspE = (S)-2-amino-4-(2-(ethyldisulfaneyl)ethoxy)-4-oxobutanoic acid, CCSSCCOC(=O)C[C@H](N[*:1])C(=O)[*:2]; Bta = N[C@@H](Cc1csc2ccccc12)C(=O)O; αAllylPro = C=CC[C@@]1(C(=O)O)CCCN1; tBuAla = CC(C)(C)C[C@H](N)C(=O)O; 3Thi = N[C@@H](Cc1ccsc1)C(=O)O; S8 = C=CCCCCCC[C@](C)(N)C(=O)O

With Ac-[αAllylPro]D[tBuAla][B5(4)]D[(EtSSEt)AspE]AAFL[PyrS2″][3Thi][Bta]Q-NH2 (staple 1-4, 4-11) [I-1965], the “NanoBRET Abs IC50” value in test [1] stood at 25.2 µM.

B1: I-64: Ac-Ala-Asp-Ile-RdN-Asp-Asp-Ala-Ala-Phe-Gln-S7-Phe-Trp-His-NH2 (stapled peptide) (peptide)
peptide: ADIXDDAAFQXFWH
modifications: not fully specified; N-terminal acetyl (Ac); C-terminal amide (NH2); RdN at position 4 and S7 at position 11 (non-natural olefin amino acids); stapled by olefin metathesis RdN-S7
notes: Same description as I-65
In test [2], B1 returned a half-maximal inhibitory concentration (IC50) of 4.25 µM. That is a single-digit micromolar value.
On the same count and under the same terms, the result for Ac-[αAllylPro]DA[B5(21)]DDAAFV[SeN]FWQ-NH2 (staple 1-4, 4-11, Same description as I-54) [I-53: Ac-PL3-Asp-Ala-B5-Asp-Asp-Ala-Ala-Phe-Val-SeN-Phe-Trp-Gln-NH2 (stapled peptide)] reads 5 µM; that for Ac-[αAllylPro]DA[B5(17)]DDAAFV[SdN]FWQ-NH2 (staple 1-4, 4-11, Tested as stapled peptide composition) [I-55: Ac-PL3-Asp-Ala-B5-Asp-Asp-Ala-Ala-Phe-Val-SdN-Phe-Trp-Gln-NH2 (stapled peptide)], 5 µM.
Same read-out and setting: the result for Ac-[αAllylPro]DA[B5(21)]DDAAFV[S8]FWQ-NH2 (staple 1-4, 4-11, Tested as stapled peptide composition) [I-52: Ac-PL3-Asp-Ala-B5-Asp-Asp-Ala-Ala-Phe-Val-S8-Phe-Trp-Gln-NH2 (stapled peptide)] reads 3.2 µM.
Ac-[αAllylPro][(EtSSEt)AspE][tBuAla][B5(4)]DDAAFL[PyrS2″][3Thi][Bta]Q-NH2 (staple 1-4, 4-11) [I-1963]: the “NanoBRET Abs IC50” value in test [1] was determined as 25.6 µM.
